Reference: the supplement of paper PMC10724198
± gives the standard deviation of the averaged measurements.

Tested on: Saccharomyces cerevisiae
Experiment: protein stability index of tFT-peptide fusion (C-terminal peptide) (PSI (0-1 scale)); higher = more stable (slower turnover)
Details: genetic background: wild type; temperature: 30 C
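Note: PSI is a weighted mean of sequencing reads over stability bins, variants kept only with over 10 reads, mCherry proximal and sfGFP distal, peptide attached via GGGS linker.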

Row | Sequence | protein stability index
1 | SGRGQQEENRRL | 0.7 ± 0.011
2 | SGSDGLLVGAPG | 0.666 ± 0.047
3 | SGSGVGVVVSEV | 0.666 ± 0.049
4 | SGSVRSCSNTCL | 0.6935 ± 0.0011
5 | SGTQSGAFSRGQ | 0.642 ± 0.081
6 | SGVGCGRSRWVW | 0.626 ± 0.029
7 | SGVVGLSTSGVV | 0.695 ± 0.063
8 | SGWSWLGLRSGL | 0.738 ± 0.025
9 | SGYSTRPLSSRS | 0.723 ± 0.041
10 | SHLSRSYPGLQL | 0.742 ± 0.027
11 | SHPLLPPHLPPP | 0.682 ± 0.082
12 | SHPPATMRAASV | 0.6646 ± 0.0043
13 | SHRYFFLAFSGL | 0.655 ± 0.02
14 | SHWCLQTQAACK | 0.65529 ± 0.00032
15 | SILPRWEFKSLS | 0.802 ± 0.06
16 | SILSRPERPLTN | 0.658 ± 0.044
17 | SIPSIPTLHENT | 0.67593 ± 0.00066
18 | SISVLSSSSLGF | 0.741 ± 0.12
19 | SITYDRLLPHSS | 0.6594 ± 0.0063
20 | SIVRKRPRTTAT | 0.682 ± 0.031
21 | SIYNKNKKIKQK | 0.688 ± 0.07
22 | SKDFLLILDPAK | 0.662 ± 0.021
23 | SKEVVVEGKRQS | 0.715 ± 0.065

Row | Sequence | protein stability index
24 | SKITENTKKKGK | 0.658 ± 0.019
25 | SKKKITGGEAGH | 0.677 ± 0.046
26 | SKLQGYRKLLST | 0.567 ± 0.0065
27 | SKLVEIIMKLQG | 0.618 ± 0.055
28 | SKPYNSAIKDIT | 0.725 ± 0.096
29 | SKRCNNNRNTSN | 0.69 ± 0.044
30 | SKVLKSKSTGRG | 0.75 ± 0.11
31 | SKVLRRLEPTIV | 0.603 ± 0.04
32 | SKWGQIKRVAIR | 0.592 ± 0.038
33 | SLAPLPARAPPL | 0.725 ± 0.018
34 | SLCTAGCKNELW | 0.692 ± 0.076
35 | SLDALVDFWSRG | 0.737 ± 0.066
36 | SLDDWSAVFHVV | 0.542 ± 0.012
37 | SLDFTERHALAC | 0.709 ± 0.031
38 | SLDKCDKNNGGE | 0.733 ± 0.065
39 | SLEWVGGRRWPI | 0.731 ± 0.014
40 | SLFSLLVLPPPS | 0.706 ± 0.035
41 | SLGCIPLVDFLR | 0.668 ± 0.0072
42 | SLGFRSLGFDRV | 0.7195 ± 0.0024
43 | SLGPPSLSARTN | 0.626 ± 0.045
44 | SLICPPFWPPSF | 0.691 ± 0.044
45 | SLILRKDKKKKK | 0.69 ± 0.01
46 | SLIRSHKLKLFP | 0.732 ± 0.045

Row | Sequence | protein stability index
47 | SLLDPLLPLLLF | 0.634 ± 0.017
48 | SLLLALPSLPLS | 0.553 ± 0.18
49 | SLLPILFPPPPF | 0.7147 ± 0.0046
50 | SLLSCDETEFSS | 0.614 ± 0.051
51 | SLLSLSPACLPL | 0.683 ± 0.026
52 | SLLTSGSLTLFV | 0.71 ± 0.037
53 | SLLVSRVVFRGN | 0.769 ± 0.12
54 | SLPASTEPNVGT | 0.696 ± 0.034
55 | SLPFFPPRSPPS | 0.725 ± 0.11
56 | SLPFLPPSAPLP | 0.76 ± 0.014
57 | SLPLLPHLPASP | 0.698 ± 0.17
58 | SLPLPPLPYSRT | 0.732 ± 0.083
59 | SLPLPPPVRPLL | 0.689 ± 0.047
60 | SLPPLPSPPCPP | 0.712 ± 0.044
61 | SLPPPLPPPAPP | 0.614 ± 0.04
62 | SLPPPPAPPPAI | 0.706 ± 0.086
63 | SLPPPPARAAIL | 0.668 ± 0.07
64 | SLPPPSPLPPPV | 0.558 ± 0.018
65 | SLPRLRSCPSSF | 0.774 ± 0.18
66 | SLPRPASYPPRF | 0.652 ± 0.079
67 | SLPSHPLPDPSR | 0.67 ± 0.018
68 | SLPYPFSLLPSL | 0.739 ± 0.03
69 | SLRGIVFQSPSP | 0.737 ± 0.025

Row | Sequence | protein stability index
70 | SLRNSFPPLSSP | 0.651 ± 0.07
71 | SLRTREGSSRRE | 0.674 ± 0.23
72 | SLSLHALPRPTT | 0.655 ± 0.029
73 | SLSLPSSVIVGS | 0.624 ± 0.089
74 | SLSLVSLSPSFS | 0.694 ± 0.0096
75 | SLSLYSSTSLLP | 0.694 ± 0.064
76 | SLSRLVGPLVSS | 0.611 ± 0.0066
77 | SLSVMSAPLVGI | 0.636 ± 0.056
78 | SLSVPYPPGLLP | 0.7119 ± 0.0022
79 | SLSWIGLYCCGL | 0.717 ± 0.051
80 | SLTGYAGESIRF | 0.774 ± 0.056
81 | SLVGFLPLWPSS | 0.64 ± 0.0085
82 | SLVNDLFFLFFY | 0.523 ± 0.069
83 | SLVTGRGFKVYR | 0.681 ± 0.05
84 | SLVWVVSDLGCG | 0.778 ± 0.11
85 | SLYQPLSPTPPE | 0.74 ± 0.064
86 | SMCASRMPVCFS | 0.767 ± 0.18
87 | SMGSGCTPSMVS | 0.654 ± 0.11
88 | SMNCTSLRPGSF | 0.7065 ± 0.0015
89 | SMSPAGARCLPR | 0.782 ± 0.05
90 | SNAGRRRTNRIP | 0.682 ± 0.03
91 | SNAIPGSHLCRS | 0.719 ± 0.093
92 | SNFCIWRWWLGF | 0.6858 ± 0.0014

Row | Sequence | protein stability index
93 | SNFKKRKERFGR | 0.7048 ± 0.0063
94 | SNGFYVSRPIVY | 0.769 ± 0.017
95 | SNGGCIMSNIYS | 0.758 ± 0.059
96 | SNHPPLSFHTGR | 0.734 ± 0.0084
97 | SNKATNEGNVNV | 0.68 ± 0.025
98 | SNPKLPYSGTLE | 0.6685 ± 0.0015
99 | SNVHDEVLWTRA | 0.704 ± 0.011
100 | SPADALPLPGCG | 0.707 ± 0.05
101 | SPAFPPPPGFPP | 0.69 ± 0.04
102 | SPAKRLFRFPSS | 0.729 ± 0.05
103 | SPALLAPPFSPS | 0.68455 ± 0.00067
104 | SPAPSFLPLTPS | 0.656 ± 0.014
105 | SPARLPPLPSLS | 0.734 ± 0.038
106 | SPASPLDPSSSS | 0.712 ± 0.037
107 | SPFLINTIFDIT | 0.606 ± 0.038
108 | SPGLLPPPTSAF | 0.71 ± 0.017
109 | SPGPPLPSLTLP | 0.738 ± 0.065
110 | SPGPVTPRPSLR | 0.669 ± 0.019
111 | SPGSPLSPPAPP | 0.62 ± 0.04
112 | SPHPRKTTSHPR | 0.6642 ± 0.0015
113 | SPHTRPDPPPLP | 0.681 ± 0.071
114 | SPKCIVASFVVS | 0.675 ± 0.028
115 | SPLALATPLSDP | 0.699 ± 0.039

Row | Sequence | protein stability index
116 | SPLASAVPFLIV | 0.633 ± 0.045
117 | SPLPPPPPSSSS | 0.661 ± 0.016
118 | SPLPPPPSRPPR | 0.794 ± 0.032
119 | SPLPPTPPPISP | 0.6721 ± 0.00083
120 | SPLYCGLSLPSV | 0.664 ± 0.027
121 | SPNSCSVDYFAT | 0.61 ± 0.055
122 | SPPESTFAFLRP | 0.706 ± 0.037
123 | SPPFLLPFFPTP | 0.68 ± 0.043
124 | SPPHASPPVLPW | 0.72 ± 0.028
125 | SPPHLPPPLLST | 0.645 ± 0.06
126 | SPPLPPPVPTAP | 0.7095 ± 0.0056
127 | SPPLPPVLSRSH | 0.741 ± 0.043
128 | SPPLSPPLPSRP | 0.7016 ± 0.0064
129 | SPPLSRSPPPTL | 0.674 ± 0.039
130 | SPPPFLCSPFVA | 0.684 ± 0.024
131 | SPPPGHPPLVPN | 0.767 ± 0.013
132 | SPPPHSARPPRP | 0.686 ± 0.012
133 | SPPPLPTAPPPL | 0.713 ± 0.066
134 | SPPPPLLPHPTP | 0.723 ± 0.047
135 | SPPPPPPARCPS | 0.592 ± 0.045
136 | SPPPPPPPHSPD | 0.654 ± 0.071
137 | SPPPPPPSPPLH | 0.727 ± 0.044
138 | SPPPPPTSPPPY | 0.638 ± 0.0091

Row | Sequence | protein stability index
139 | SPPPPRPRPCAI | 0.753 ± 0.12
140 | SPPRSCLPRPPD | 0.676 ± 0.05
141 | SPPRSPPTFPPC | 0.704 ± 0.063
142 | SPPSFIVPSTSL | 0.69 ± 0.054
143 | SPPSPASPPSSP | 0.741 ± 0.075
144 | SPPSPPPSPPTL | 0.77 ± 0.092
145 | SPPSPSPSPRPL | 0.669 ± 0.03
146 | SPPVPLSPPLSP | 0.537 ± 0.023
147 | SPRIDFLLPCSS | 0.647 ± 0.032
148 | SPRLPLSRPLVV | 0.574 ± 0.0064
149 | SPRLPPPRPLPS | 0.676 ± 0.057
150 | SPRPSPPPPSHA | 0.636 ± 0.077
151 | SPRRVAVAGETS | 0.68 ± 0.093
152 | SPSLPHAPSRPP | 0.607 ± 0.06
153 | SPSNPSLRLSSP | 0.676 ± 0.023
154 | SPSPPPPPPPPL | 0.6877 ± 0.0022
155 | SPSPPPRTPPPL | 0.689 ± 0.022
156 | SPSSLPPTLPTL | 0.711 ± 0.021
157 | SPTDSDINIPRV | 0.714 ± 0.05
158 | SPTGTPIIPSYP | 0.684 ± 0.0098
159 | SPTPPPTSPSRP | 0.728 ± 0.11
160 | SPVSPPLVRPPY | 0.642 ± 0.054
